Laboratory results as given in article PMC11116813 (2024).

Tests used:
Assay in all cases: ITC
[1] = biological target: T1, full-length human HP1α WT (hHP1α), recombinant (human, UniProt P45973 1-191)
[2] = biological target: T1, full-length human HP1α WT (hHP1α), …; remark: listed apart in the source
[3] = biological target: human HP1α chromoshadow domain (CSD), recombinant (human)
[4] = biological target: human HP1α chromoshadow domain (CSD), recombinant (human); remark: listed apart in the source

Sequence of human HP1α chromoshadow domain (CSD), recombinant (human) (chain, as listed by the source): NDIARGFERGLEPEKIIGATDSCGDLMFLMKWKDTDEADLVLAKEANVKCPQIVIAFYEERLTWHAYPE
T1 sequence (P45973 whole entry): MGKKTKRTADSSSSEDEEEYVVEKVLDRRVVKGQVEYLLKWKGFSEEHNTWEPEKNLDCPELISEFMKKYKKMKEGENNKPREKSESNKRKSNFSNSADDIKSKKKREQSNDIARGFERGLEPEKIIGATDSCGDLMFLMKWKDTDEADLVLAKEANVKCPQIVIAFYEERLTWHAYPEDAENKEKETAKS

Binder	Kd [1]	Ka [2]	Kd [3]	Ka [4]
human INCENP (121-210) -6His, GST removed (Fig. 2D) (domain or fragment) LRRVTRAAAAAAAATMALAAPSSPTPESPTMLTKKPEDNHTQCQLVPVVEIGISERQNAEQHVTQLMSTEPLPRTLSPTPASATAPTSQG	14 nM	7.25e+07 M⁻¹		
human INCENP (160-210) -6His, GST removed (domain or fragment) HTQCQLVPVVEIGISERQNAEQHVTQLMSTEPLPRTLSPTPASATAPTSQG	25 nM	3.9e+07 M⁻¹	39 nM	2.56e+07 M⁻¹
human INCENP fragment (121-210) WT used in Fig. 6A (domain or fragment) YLRRVTRAAAAAAAATMALAAPSSPTPESPTMLTKKPEDNHTQCQLVPVVEIGISERQNAEQHVTQLMSTEPLPRTLSPTPASATAPTSQG	55 nM	1.82e+07 M⁻¹		

Second part, the binder after the results:

Kd [1]	Ka [2]	Kd [3]	Ka [4]	Binder
	242000 M⁻¹			human Sgo1 fragment (405-494), Tyr-added, GST removed (domain or fragment) YAKRALKYTDEKETEGSKPTKTPTTTPPETQQSPHLSLKDITNVSLYPVVKIRRLSLSPKKNKASPAVALPKRRCTASVNYKEPTLASKLR
	2.35e+07 M⁻¹			human INCENP (121-270) WT -6His, GST removed (domain or fragment) LRRVTRAAAAAAAATMALAAPSSPTPESPTMLTKKPEDNHTQCQLVPVVEIGISERQNAEQHVTQLMSTEPLPRTLSPTPASATAPTSQGIPTSDEESTPKKSKARILESITVSSLMATPQDPKGQGVGTGRSASKLRIAQVSPGPRDSP
		39 nM	2.57e+07 M⁻¹	YHTQCQLVPVVEIGISERQNAEQHVTQLMSTEPL (domain or fragment) [human INCENP (160-192), untagged version (Tyr-added), GST removed]
